Laboratory results: publication PMC8525972

Target: fluorescein-labeled Fc-III (Fluorescein-Ahx-…-NH2)
Experiment: other fluorescence titration

With “human IgG1 adalimumab biosimilar Exemptia (antibody)” the fold increase of fluorescence intensity at 2.5 g/L was 1.8 fold and the limit of detection by fluorescence intensity was 0.0001 g/L.
murine IgG1 (antibody) was tested, and the limit of detection by fluorescence intensity was 0.1 g/L.
